Measurements reported in publication PMC10213043, “Different viral effectors suppress hormone-mediated antiviral immunity of rice coordinated by OsNPR1” (Nature Communications, 2023).

Target: the molecule itself
Test: pull-down; purified proteins, 5 µg GST-OsNPR1 with 5 µg MBP-HIS-OsNPR1 or 5 µg MBP-HIS-OsCUL3a, plus 1 or 10 µg MBP-HIS-P2 (or 10 µg MBP-HIS); held on glutathione sepharose beads, 4 °C, 2 h, washed with 1x PBS

B1: GST-OsNPR1 (natural protein)
chain: MEPPTSHVTNAFSDSDSASVEEGGADADADVEALRRLSDNLAAAFRSPEDFAFLADARIAVPGGGGGGGDLLVHRCVLSARSPFLRGVFARRAAAAAGGGGEDGGERLELRELLGGGGEEVEVGYEALRLVLDYLYSGRVGDLPKAACLCVDEDCAHVGCHPAVAFMAQVLFAASTFQVAELTNLFQRRLLDVLDKVEVDNLLLILSVANLCNKSCMKLLERCLDMVVRSNLDMITLEKSLPPDVIKQIIDARLSLGLISPENKGFPNKHVRRIHRALDSDDVELVRMLLTEGQTNLDDAFALHYAVEHCDSKITTELLDLALADVNHRNPRGYTVLHIAARRREPKIIVSLLTKGARPADVTFDGRKAVQISKRLTKQGDYFGVTEEGKPSPKDRLCIEILEQAERRDPQLGEASVSLAMAGESLRGRLLYLENRVALARIMFPMEARVAMDIAQVDGTLEFNLGSGANPPPERQRTTVDLNESPFIMKEEHLARMTALSKTVELGKRFFPRCSNVLDKIMDDETDPVSLGRDTSAEKRKRFHDLQDVLQKAFHEDKEENDRSGLSSSSSSTSIGAIRPRR
notes: also called second copy in the self-association pull-down: MBP-HIS-OsNPR1; MBP-OsNPR1; source: E. coli Rosetta (DE3), purified
- binding result: binds
